Measured values published in patent publication US20250289897A1, “LEPTIN RECEPTOR AGONISTIC ANTIBODY AS MONO OR COMBO THERAPIES TO TREAT OBESITY” (ELI LILLY AND COMPANY, priority 2024, published 2025).
Several values for one entry are separate records, joined by “and”; a condition that tells them apart may be missing. Identical values can stand only once.

Columns and labels:
[1] = target: T1, FcRn (Homo sapiens, UniProt P55899); experiment: Relative FcRn binding by FcRn-HPLC; settings: FcRn affinity column; for Retention Time: pH gradient 5.5 to 8.8 over 90 minutes, main peak; for Peak Width: peak width at 50% peak height
T1 construct: purchased Roche 09430857001
Experimental: IgG binding to neonatal Fc receptor (FcRn) is a key mechanism for antibody recycling and a determinant of antibody pharmacokinetics (PK). […] Antibody-A is an IgG1 mAb with L234A, L235A, D265S mutations to reduce FcγR and Clq binding and M252Y, S254T, and T256E mutations to modulate the antibody's clearance profile. The impact of these combined mutation sets was assessed by FcRn-HPLC. Stock antibody solutions were diluted to 1 mg/mL into 20 mM MES, 140 mM NaCl, pH5.5. An Agilent 1290 HPLC equipped with an FcRn Affinity Column Gen2 (Roche, Cat #09430857001) was pre-equilibrated with 20 mM MES, 140 mM NaCl, pH5.5 with a flow rate of 0.2mL/min. 20 μμL antibody injections were made followed by 10 minute column wash with 20 mM MES, 140 mM NaCl, pH5.5. Antibodies were then eluted by pH gradient elution into 20 mM Tris, 140 mM NaCl, pH8.8 over 90 minutes. Chromatograms were blank-subtracted to remove baseline drift.

[2] = target: leptin-LEPR interaction (Homo sapiens, UniProt P48357); experiment: ELISA based competition binding assay of antibodies and leptin protein to LEPR
Chain of leptin-LEPR interaction (P48357 with tags, fused parts or gaps): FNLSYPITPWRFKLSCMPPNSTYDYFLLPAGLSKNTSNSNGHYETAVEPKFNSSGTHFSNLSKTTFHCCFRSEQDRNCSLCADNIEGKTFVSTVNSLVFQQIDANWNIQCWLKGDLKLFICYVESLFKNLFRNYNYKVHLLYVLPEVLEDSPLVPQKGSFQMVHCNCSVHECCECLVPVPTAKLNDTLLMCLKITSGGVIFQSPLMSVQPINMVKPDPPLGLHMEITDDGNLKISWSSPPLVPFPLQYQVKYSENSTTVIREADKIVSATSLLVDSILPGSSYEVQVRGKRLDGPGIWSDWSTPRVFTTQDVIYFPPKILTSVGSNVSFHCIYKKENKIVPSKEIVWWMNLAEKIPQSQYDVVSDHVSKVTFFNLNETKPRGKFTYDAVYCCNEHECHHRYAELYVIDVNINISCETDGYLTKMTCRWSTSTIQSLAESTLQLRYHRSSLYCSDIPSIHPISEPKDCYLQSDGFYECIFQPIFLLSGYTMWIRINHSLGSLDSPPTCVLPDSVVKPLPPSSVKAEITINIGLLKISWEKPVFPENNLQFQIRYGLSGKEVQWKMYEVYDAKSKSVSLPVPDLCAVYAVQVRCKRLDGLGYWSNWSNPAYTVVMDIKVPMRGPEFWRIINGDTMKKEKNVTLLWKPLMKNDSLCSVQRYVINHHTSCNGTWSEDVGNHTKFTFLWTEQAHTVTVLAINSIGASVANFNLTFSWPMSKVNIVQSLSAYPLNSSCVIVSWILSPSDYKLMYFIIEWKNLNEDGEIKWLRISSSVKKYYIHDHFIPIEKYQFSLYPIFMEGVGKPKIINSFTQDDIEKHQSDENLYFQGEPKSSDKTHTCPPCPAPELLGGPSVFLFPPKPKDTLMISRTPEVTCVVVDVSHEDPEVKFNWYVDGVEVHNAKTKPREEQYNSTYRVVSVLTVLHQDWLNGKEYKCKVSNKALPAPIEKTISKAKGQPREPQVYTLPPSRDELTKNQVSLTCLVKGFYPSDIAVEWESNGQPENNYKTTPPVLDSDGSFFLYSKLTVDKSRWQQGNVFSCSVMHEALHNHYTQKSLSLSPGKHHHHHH
Experimental: To test whether the binding of anti-LEPR antibodies to LEPR will compete with leptin-LEPR interaction, an ELISA based competition binding assay was conducted.
Recombinant LEPR extracellular domain fused to hlgG1-Fc (LEPR-Fc) (SEQ ID NO: 30) was diluted in Phosphate Buffered Solution (PBS, Gibco, #20012-027) and applied onto a 96-well Costar assay plate (Corning, #3690) at 5 μg/mL and 50 μL/well. The solution was incubated at 4° C. for 20 hours to allow sufficient protein coating. The plate was then rinsed 3 times with 160 μL/well of 1x wash buffer (R&D, #WA126, 25x), blocked for 1 hour at room temperature with Casein blocking solution (ThermoFisher, #37582), and rinsed by wash buffer 2 times. Serial concentrations of anti-LEPR antibodies (Antibodies A, B, and C) were then diluted in 60 μL of Casein blocking solution and added to each well. Serial concentrations of LEPR-Fc (SEQ ID NO:30) were used as positive control to compete with plate-bound receptor for leptin. Casein blocking solution was used as negative control. The plate was incubated with either anti-LEPR antibodies, positive or negative controls for 90 minutes at room temperature. Next, recombinant human leptin protein (R&D, #398-LP-05M) diluted in 20 μL Casein blocking buffer was added to each plate to a final concentration of 2 nM. The plate was then mixed for 30 seconds with gentle shaking followed by another 90 minutes of incubation at room temperature. The plate was rinsed 3 times with wash buffer. […] Data was obtained by a microplate reader with light absorbance set to 450 nm (OD450). Average OD450 readings in casein coated wells (without LEPR-Fc (SEQ ID NO: 30) coating) were subtracted from all raw OD450 readings to generate the normalized OD450 readings. The average normalized OD450 readings from negative controls (2 nM leptin incubated wells without any competing articles) was set as 100 percent (100%) binding. All normalized OD450 readings were compared to this OD450 reading and presented as percentages of binding. The top and bottom of dose response curve and IC50 was calculated using GraphPad Prism software.

T1 sequence (P55899 24-297 limits assumed): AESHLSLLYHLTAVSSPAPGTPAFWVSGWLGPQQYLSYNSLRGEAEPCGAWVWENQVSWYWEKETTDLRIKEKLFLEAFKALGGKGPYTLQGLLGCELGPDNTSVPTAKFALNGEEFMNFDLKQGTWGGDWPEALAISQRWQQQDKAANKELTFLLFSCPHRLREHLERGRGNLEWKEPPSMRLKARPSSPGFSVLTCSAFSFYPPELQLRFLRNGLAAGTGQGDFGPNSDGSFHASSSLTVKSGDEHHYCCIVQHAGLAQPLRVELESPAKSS
T1 sequence (P61769 21-119 partner): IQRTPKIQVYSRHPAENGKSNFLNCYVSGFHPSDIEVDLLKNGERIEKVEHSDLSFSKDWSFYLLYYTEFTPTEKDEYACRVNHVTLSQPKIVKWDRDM

Briakinumab
Retention Time [1]: 88.9 min
Peak Width [1]: 10 min and 10.0 min

Ustekinumab
Retention Time [1]: 69.4 min
Peak Width [1]: 1.9 min

hLEPR-TEV-hIgG1Fc: recombinant LEPR extracellular domain fused to hIgG1-Fc (SEQ ID NO: 30), positive control competing for leptin
Hill Slope ([2]; competition dose response curve): −1.07
Bottom (%) ([2]; percent leptin binding to plate-bound LEPR-Fc, 2 nM leptin, bottom of dose response curve): 6.076%
Top (%) ([2]; percent leptin binding to plate-bound LEPR-Fc, 2 nM leptin, top of dose response curve): 92.03%
